# Read-outs that look alike come from different tables or passages of the source.
# Assays:
# [1] = target: T1, human EGFR protein (wild-type), on cells (human, UniProt P00533 25-1210); assay: FACS on A431 cells
# T1 construct: whole, on cells; transfected on CHO-K1 cells; endogenous on the human cell lines; the cell is named under assay; also called wild-type EGFR; hEGFR
# Method: (§1) The cells are washed twice with the HBSS buffer and are counted, and then the cells are diluted with the HBSS buffer to 2×10⁶ cells/ml, added with 1% goat serum blocking solution, with the percentage being the mass percentage, and incubated on ice for 30 minutes, and then centrifugally washed twice with the HBSS buffer. The collected cells are suspended to 2×10⁶ cells/mL with an FACS buffer (HBSS+1% BSA, with the percentage being the mass percentage), added to a 96-well FACS reaction plate at 100 μL/well, then added with 100 μL/well of the purified EGFRvIII antibody (samples to be tested) obtained in example 2, and incubated on ice for 2 hours. The plate is centrifugally washed twice with the FACS buffer, added with 100 μL/well of a fluorescence (Alexa 488) labeled secondary antibody (purchased from Invitrogen), and then incubated on ice for 1 hour. […] The cells are suspended in 100 μL of the FACS buffer, and the results are detected and analyzed by FACS (FACS Calibur, purchased from BD). Data analysis is performed by using the software (CellQuest) to obtain the mean fluorescence intensity (MFI) of the cells. Data is further analyzed by using the software (GraphPad Prism5) to perform data fitting and calculate EC50. […]
# [2] = target: T2, human EGFRvIII-hFc protein (human, UniProt P00533 25-645); assay: ELISA, coated EGFRvIII-hFc, antibody 1 nM
# T2 construct: extracellular domain; made in HEK293 cells, purified on protein A; also called immunogen A; hFc-tagged EGFRvIII protein; not shown: human IgG Fc fragment (hFc) of the pCpC vector
# Procedure, shortened: (§2)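 Binding of purified EGFRvIII antibody was measured on plates coated overnight at 4° C with 1.0 μg/mL EGFRvIII-hFc. After BSA blocking, antibody and then an HRP-conjugated secondary were each incubated 2 h at 37° C, and signal was taken as A450 nm.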
# [3] = target: T2, human EGFRvIII-hFc protein; assay: ELISA, coated EGFRvIII-hFc, antibody 10 nM
# Procedure, shortened: as §2
# [4] = target: T2, human EGFRvIII-hFc protein; assay: ELISA, coated EGFRvIII-hFc, antibody 0.1 nM
# Procedure, shortened: as §2
# [5] = target: T2, human EGFRvIII-hFc protein; assay: ELISA, coated EGFRvIII-hFc, antibody 100 nM
# Procedure, shortened: as §2
# [6] = target: T2, human EGFRvIII-hFc protein; assay: ELISA, coated EGFRvIII-hFc, antibody 0.01 nM
# Procedure, shortened: as §2
# [7] = target: T2, human EGFRvIII-hFc protein; assay: ELISA, coated EGFRvIII-hFc, antibody 0.001 nM
# Procedure, shortened: as §2
# [8] = target: T2, human EGFRvIII-hFc protein; assay: ELISA, coated EGFRvIII-hFc, antibody 0.0001 nM
# Procedure, shortened: as §2
# [9] = target: T2, human EGFRvIII-hFc protein; assay: ELISA, plate coated with human EGFRvIII-hFc, HRP secondary antibody, absorbance at 450 nm
# Method: (§3) The purified immunogen A (EGFRvIII-hFc) obtained in example 1 (for the preparation method, see step (I) in example 1) is diluted with PBS to a final concentration of 1.0 μg/mL, and then added to a 96-well ELISA plate at 100 μl/well. The plate is sealed with a plastic film and incubated at 4° C. overnight. The next day, the plate is washed twice with a plate washing solution [PBS+0.01% (v/v) Tween20], and added with a blocking solution [PBS+0.01% (v/v) Tween20+1% (w/w) BSA] for blocking 2 hours at room temperature. The blocking solution is discarded, and the purified EGFRvIII antibody obtained in example 2 is added at 100 μl/well. The plate is incubated for 2 hours at 37° C., and then washed 3 times with the plate washing solution [PBS+0.01% (v/v) Tween20]. The plate is added with an HRP (horseradish peroxidase) labeled secondary antibody (purchased from Sigma), incubated at 37° C. for 2 hours, and then washed 3 times with the plate washing solution [PBS+0.01% (v/v) Tween20]. The plate is added with 100 μl of TMB substrate/well, incubated for 30 minutes at room temperature, and then added with 100 μl of stopping solution (1.0N HCl)/well. A450 nm value is read using an ELISA plate reader (SpectraMax 384plus, purchased from Molecular Device), and the results are shown in FIG. 6 and table 10.
# [10] = target: T1, human EGFR protein (wild-type), on cells; assay: FACS on HFF-1, HFL-I, QSG-7701, HEEC, HEB, WPMY-1 and MCF-10A cells
# [11] = target: T2, human EGFRvIII-hFc protein; assay: ELISA, plate coated with human EGFRvIII-hFc, HRP secondary antibody, absorbance at 450 nm; remark: listed apart in the source
# Method: as §3, with “temperature. […]” for “temperature. The blocking solution is discarded, and the purified EGFRvIII antibody obtained in example 2 is added at 100 μl/well.”, “FIG. 11” for “FIG. 6”, “table 19.” for “table 10.”
# [12] = target: T3, human wild-type EGFR protein on the cell surface (human, UniProt P00533 25-1210); assay: FACS on CHOk1-EGFR cells
# T3 construct: whole, on cells; Endogenous on A431, HEB, U87MG cells and normal human primary hepatocytes; transfected on CHOk1-EGFR cells; The cell is named under assay; also called A431; HEB
# Method: The cells are washed twice with the HBSS buffer and are counted, and then the cells are diluted with the HBSS buffer to 2×10⁶ cells/ml, added with 1% goat serum blocking solution, with the percentage being the mass percentage, and incubated on ice for 30 minutes, and then centrifugally washed twice with the HBSS buffer. The collected cells are suspended to 2×10⁶ cells/mL with an FACS buffer (HBSS+1% BSA, with the percentage being the mass percentage), added to a 96-well FACS reaction plate at 100 μL/well, then added with 100 μL/well of the purified EGFRvIII antibody (samples to be tested) obtained in example 2, and incubated on ice for 2 hours. The plate is centrifugally washed twice with the FACS buffer, added with 100 μL/well of a fluorescence (Alexa 488) labeled secondary antibody (purchased from Invitrogen), and then incubated on ice for 1 hour. The plate is centrifugally washed 3 times with the FACS buffer, added with 100 μL/well of a fixing solution [4% (v/v) paraformaldehyde] for suspending the cells, and centrifugally washed twice with the FACS buffer after 10 minutes. The cells are suspended in 100 μL of the FACS buffer, and the results are detected and analyzed by FACS (FACS Calibur, purchased from BD). Data analysis is performed by using the software (CellQuest) to obtain the mean fluorescence intensity (MFI) of the cells. Data is further analyzed by using the software (GraphPad Prism5) to perform data fitting and calculate EC50. […] A431 cells (human epidermal cell cancer cell lines) have a large amount of wild-type EGFR protein expressed on the surface thereof. […] U87MG cells (human glioma cell lines) have a small amount of wild-type EGFR protein expressed on the surface thereof, while HEB cells (human glioma cell lines) have a high level of wild-type EGFR protein expression on the surface thereof.
# [13] = target: T4, human EGFRvIII-hFc protein (human, UniProt P00533 25-645); assay: ELISA, EGFRvIII-hFc coated
# T4 construct: extracellular domain; also called immunogen A; hFc-tagged EGFRvIII protein; not shown: human IgG Fc fragment (hFc) of the pCpC vector
# [14] = target: T5, human EGFRvIII protein on the cell surface (human, UniProt P00533 25-1210); assay: FACS on CHOk1-EGFRvIII cells
# T5 construct: whole, on cells; the cell line is named under assay; also called hEGFRvIII; U87MG-hEGFRvIII
# Method: The desired cells are subjected to an expanded culture to 90% confluence in a T-75 cell culture flask; the medium is sucked out, and the cells are washed twice with a HBSS buffer (Hanks Balanced Salt Solution) (purchased from Invitrogen), and then treated with an enzyme-free cell dissociation solution (Versene solution: purchased from Life Technology) and collected. The cells are washed twice with the HBSS buffer and are counted, and then the cells are diluted with the HBSS buffer to 2×10⁶ cells/ml, added with 1% goat serum blocking solution, with the percentage being the mass percentage, and incubated on ice for 30 minutes, and then centrifugally washed twice with the HBSS buffer. The collected cells are suspended to 2×10⁶ cells/mL with an FACS buffer (HBSS+1% BSA, with the percentage being the mass percentage), added to a 96-well FACS reaction plate at 100 μL/well, then added with 100 μL/well of the purified EGFRvIII antibody (samples to be tested) obtained in example 2, and incubated on ice for 2 hours. The plate is centrifugally washed twice with the FACS buffer, added with 100 μL/well of a fluorescence (Alexa 488) labeled secondary antibody (purchased from Invitrogen), and then incubated on ice for 1 hour. The plate is centrifugally washed 3 times with the FACS buffer, added with 100 μL/well of a fixing solution [4% (v/v) paraformaldehyde] for suspending the cells, and centrifugally washed twice with the FACS buffer after 10 minutes. The cells are suspended in 100 μL of the FACS buffer, and the results are detected and analyzed by FACS (FACS Calibur, purchased from BD). Data analysis is performed by using the software (CellQuest) to obtain the mean fluorescence intensity (MFI) of the cells. Data is further analyzed by using the software (GraphPad Prism5) to perform data fitting and calculate EC50. […] A431 cells (human epidermal cell cancer cell lines) have a large amount of wild-type EGFR protein expressed on the surface thereof.
# [15] = target: T4, human EGFRvIII-hFc protein; assay: ELISA, EGFRvIII-hFc coated; weak binding, maximum OD450 0.79 against 3.03 for wild type and 0.08 for hIgG
# Method: The plate is incubated for 2 hours at 37° C., and then washed 3 times with the plate washing solution [PBS+0.01% (v/v) Tween20]. The plate is added with an HRP (horseradish peroxidase) labeled secondary antibody (purchased from Sigma), incubated at 37° C. for 2 hours, and then washed 3 times with the plate washing solution [PBS+0.01% (v/v) Tween20]. The plate is added with 100 μl of TMB substrate/well, incubated for 30 minutes at room temperature, and then added with 100 μl of stopping solution (1.0N HCl)/well. A450 nm value is read using an ELISA plate reader (SpectraMax 384plus, purchased from Molecular Device), and the results are shown in FIG. 11 and table 19.
# [16] = target: T3, human wild-type EGFR protein on the …; assay: FACS on A431 cells
# Method: as §1
# [17] = target: T5, human EGFRvIII protein on the cell …; assay: FACS on U87MG-hEGFRvIII cells
binder,measurement,setting,value
"Murine anti-7E5 (antibody, V domains shown, murine hybridoma antibody; also called 7E5-2A9; murine anti-7E5-2) VH: EIQLQQSGPELVKPGASVKVSCKASGYSFTDYNMYWVKQSHGKSLEWIGYVDPSNGGTNYNQKFKGKATLTVDKSSSTAFMHLNSLTSEDSAVYYCARGFFDYWGQGTTLTVSS VL: DIVMTQSPSSLTVTAGEKVTMSCKSSQSLLNSGNQKNYLTWYQQKPGQPPKLLIYWASNRESGVPDRFTGSGSGKDFTLTISSVQAEDLAVYYCQNDYRYPVTFGAGTKLELK",binding result,[1],no binding
same,OD450 nm,[2],3.18
same,OD450 nm,[3],3.14
same,OD450 nm,[4],1.68
same,OD450 nm,[5],3.36
same,OD450 nm,[6],0.35
same,OD450 nm,[7],0.17
same,OD450 nm,[8],0.15
same,EC50 (read off the curve),[9],~0.02 nM
"Chimeric antibody 7E5 (antibody, human IgG1, V domains shown, also called 7E5-2A9 (chimeric)) VH: EIQLQQSGPELVKPGASVKVSCKASGYSFTDYNMYWVKQSHGKSLEWIGYVDPSNGGTNYNQKFKGKATLTVDKSSSTAFMHLNSLTSEDSAVYYCARGFFDYWGQGTTLTVSS VL: DIVMTQSPSSLTVTAGEKVTMSCKSSQSLLNSGNQKNYLTWYQQKPGQPPKLLIYWASNRESGVPDRFTGSGSGKDFTLTISSVQAEDLAVYYCQNDYRYPVTFGAGTKLELK",binding result,[10],no binding
same,EC50 (read off the curve),[11],~0.03 nM
"c75G7C6-4 (antibody, human IgG1, V domains shown, Chimeric 75G7C6 with DG of heavy chain CDR3 mutated to SG; Human IgG1/kappa; also called mutant chimeric antibody DG/SG) VH: EVQLQQSGPELVKPGASVKIPCKASGYTFTDYNMDWVKQSHGKSLEWIGDINPNNGDTIYNQKFKGKATLTVDKSSSTAYMELRSLTSEDTAVYYCARGDYSGYYPVYYAMDYWGQGTSVTVSS VL: ENVLTQSPAIMSASPGEKVTMTCRASSSVSSSYLHWYQQKSGASPKLWIFSTSNLAAGVPARFSGSGSGTSYSLTVSSVEAEDAATYYCQQYSGYPLTFGAGTKLELK",Maximum mean fluorescence intensity,[12],8970 MFI
same,Maximum OD450 value,[13],0.79 OD450
same,EC50,[14],24 nM
same,Maximum mean fluorescence intensity,[14],52600 MFI
same,EC50,[15],7.94 nM
"Chimeric antibody 7E5 (antibody, human IgG1, V domains shown, also called clone 7E5-2A9) VH: EIQLQQSGPELVKPGASVKVSCKASGYSFTDYNMYWVKQSHGKSLEWIGYVDPSNGGTNYNQKFKGKATLTVDKSSSTAFMHLNSLTSEDSAVYYCARGFFDYWGQGTTLTVSS VL: DIVMTQSPSSLTVTAGEKVTMSCKSSQSLLNSGNQKNYLTWYQQKPGQPPKLLIYWASNRESGVPDRFTGSGSGKDFTLTISSVQAEDLAVYYCQNDYRYPVTFGAGTKLELK",binding result,[16],no binding
same,OD450 nm at 0.0001 nM antibody,[13],0.09 OD450
same,OD450 nm at 0.001 nM antibody,[13],0.08 OD450
same,OD450 nm at 0.01 nM antibody,[13],0.19 OD450
same,OD450 nm at 0.1 nM antibody,[13],1.18 OD450
same,OD450 nm at 1 nM antibody,[13],3.45 OD450
same,OD450 nm at 10 nM antibody,[13],3.63 OD450
same,OD450 nm at 100 nM antibody,[13],3.6 OD450
same,EC50,[17],1.9 nM
